Drawing on the Immune Epitope Database (IEDB), this text covers IC50 and Kd for 35 sequences.

The target in assay [1] is HLA-A*02:01. The assay is described as follows: IEDB peptide-MHC binding, purified MHC/competitive/fluorescence; ≥ and ≤ were set here for values at or beyond the usual limits of such assays.
For assay [2], the target named is HLA-A*24:02. The assay is described as above.
For assay [3], the target named is HLA-A*01:01. The assay is described as follows: IEDB peptide-MHC binding, purified MHC/direct/fluorescence; filed as Kd, often an IC50 or EC50 that approximates it; ≥ and ≤ were set here for values at or beyond the usual limits of such assays.
The target of another assay is HLA-B*58:01. The assay is described as above.
A further assay concerns the target HLA-A*69:01. The assay is described as above. The following applies: source organism: Homo sapiens.
Another assay deals with HLA-B*07:02. The description is as above. The following applies: source organism: Homo sapiens.
The next assay has as its target HLA-A*11:01. The assay is described as above.
Another assay concerns the target HLA-B*15:01. Described as above.
The target in the next assay is HLA-B*53:01. The assay is described as follows: IEDB peptide-MHC binding, purified MHC/competitive/radioactivity; filed as Kd, often an IC50 or EC50 that approximates it; ≥ and ≤ were set here for values at or beyond the usual limits of such assays.
The next assay deals with HLA-B*40:01. The assay is described as above.
For another assay, the target named is HLA-A*32:01. The assay is described as above.
Assay [4] has as its target HLA-A*02:01. The assay is described as follows: IEDB peptide-MHC binding, purified MHC/competitive/fluorescence; filed as Kd, often an IC50 or EC50 that approximates it; ≥ and ≤ were set here for values at or beyond the usual limits of such assays.
Another assay addresses HLA-A*26:01. Nature of the assay: IEDB peptide-MHC binding, purified MHC/competitive/radioactivity; filed as Kd, often an IC50 or EC50 that approximates it; ≥ and ≤ were set here for values at or beyond the usual limits of such assays.
The target of a further assay is HLA-B*44:02. The assay is described as above.
Another assay has as its target HLA-B*44:03. The description is as above.
In assay [5] the target is HLA-A*01:01. Described as above.
The next assay addresses HLA-A*29:02. The description is as above. The following applies: source organism: SARS coronavirus Tor2.
For the next assay, the target named is HLA-A*23:01. Described as above. The following applies: source organism: SARS coronavirus Tor2.
For assay [6], the target named is HLA-A*24:02. The description is as above. The following applies: source organism: SARS coronavirus Tor2.
For a further assay, the target named is HLA-A*30:02. Described as above. The following applies: source organism: SARS coronavirus Tor2.
A further assay deals with HLA-A*03:01. The assay is described as follows: IEDB peptide-MHC binding, purified MHC/direct/fluorescence; filed as Kd, often an IC50 or EC50 that approximates it; ≥ and ≤ were set here for values at or beyond the usual limits of such assays. The following applies: source organism: Brucella abortus.
The mark [7] stands for this setting: source organism: Sudan ebolavirus.
[8] abbreviates: source organism: Zaire ebolavirus.
The mark [9] stands for this setting: source organism: Dengue virus 3 Martinique/1243/1999.
Setting [10] is: source organism: Dengue virus 2 Jamaica/1409/1983.
The mark [11] stands for this setting: source organism: Dengue virus 4 Philippines/H241/1956.
[12] abbreviates: source organism: Vaccinia virus WR.
Where [13] appears, read: source organism: Dengue virus 1 Singapore/S275/1990.
Setting [14] is: source organism: SARS coronavirus Tor2.
[15] abbreviates: source organism: Brucella abortus.

Broadly, the IC50 is the concentration needed to halve the response being measured. In the case of MEGLSLLQL, the values for the IC50 with HLA-A*02:01 [1] (setting [7]) and in the assay with HLA-A*24:02 [2] (setting [7]) were not below 88900 nM and 22300 nM, respectively.

Take LGVIHNSTL: the figures for the IC50 in the assay with HLA-A*02:01 [1] (setting [8]) and with HLA-A*24:02 [2] (setting [8]) were 69100 nM and 50900 nM, respectively.

In general, Kd refers to the equilibrium constant for the complex coming apart. As to LSDHQDLKW, the Kd with HLA-A*01:01 [3] (source organism: SARS-CoV1) amounted to 818 nM; with HLA-B*58:01 (source organism: SARS-CoV1), 26.6 nM.

On to VNPEIDTTI, for which the IC50 is not below 358000 nM with HLA-A*02:01 [1] (setting [8]) and 16100 nM in the assay with HLA-A*24:02 [2] (setting [8]).

With ISLICGHSY, the Kd was 11000 nM in the assay with HLA-A*01:01 [3] (source organism: Homo sapiens); 5280 nM with HLA-A*69:01; 17400 nM in the assay with HLA-B*07:02; 22 nM with HLA-B*58:01 (source organism: Homo sapiens); 8980 nM in the assay with HLA-A*11:01 (source organism: Homo sapiens); 108 nM with HLA-B*15:01 (source organism: Homo sapiens).

On to FPQSNAPIQ, for which the Kd with HLA-B*53:01 (setting [9]) came to 69.8 nM.

On to KEIGRMLNIL, for which, in the assay with HLA-B*40:01 (setting [10]), the Kd worked out at 4.83 nM.

For the sequence LEIDFGECPG, the dissociation constant Kd with HLA-B*40:01 (setting [11]) stood at 10200 nM.

Regarding PTTTYTLEY, the Kd with HLA-A*01:01 [3] (source organism: Mycobacterium tuberculosis) turned out to be 14.2 nM.

Consider SLFSLLLVI, for which the dissociation constant Kd in the assay with HLA-A*32:01 (setting [12]) is 27.5 nM.

LLNNSLGSV registered a Kd with HLA-A*02:01 [4] (source organism: Vaccinia virus Copenhagen) of 3.6 nM.

As to VAEGQTLDL, in the assay with HLA-B*07:02, the Kd is not below 87200 nM.

For ETRAETWMSS, the figures for the Kd in the assay with HLA-A*26:01 (setting [11]) and in the assay with HLA-A*32:01 (setting [11]) were 504 nM and not below 47200 nM, respectively.

Take KMFSNNVLI: the Kd in the assay with HLA-A*32:01 (setting [12]) was determined as 1.1 nM.

The sequence KFRDMITFR registered a Kd in the assay with HLA-A*01:01 [3] (source organism: Vibrio cholerae) not below 20000 nM.

IGFLVLWIGT: the Kd with HLA-A*32:01 (setting [11]) is not below 69900 nM.

With REEEEAGVLW, the results for the Kd with HLA-B*44:02 (setting [10]) and in the assay with HLA-B*44:03 (setting [10]) were 51.2 nM and 36.1 nM, respectively.

As to MFLITENKIW, in the assay with HLA-B*53:01 (source organism: Dengue virus 1 Nauru/West Pac/1974), the Kd is 8870 nM.

On to EPDYEVDEDI, for which the equilibrium dissociation constant (Kd) with HLA-B*53:01 (setting [11]) was found to be 1170 nM.

On to RTYSDPLAL, for which the Kd in the assay with HLA-A*32:01 (source organism: Dengue virus 1 Brazil/97-11/1997) is 33.4 nM.

Regarding VMEITAEWLW, in the assay with HLA-B*53:01 (source organism: Dengue virus 3 Singapore/8120/1995), the Kd was determined as 1030 nM.

As for VQLESRFTP, the IC50 is not below 197000 nM with HLA-A*02:01 [1] (setting [8]) and 59200 nM in the assay with HLA-A*24:02 [2] (setting [8]).

For the sequence MEVEIWTRE, the Kd with HLA-B*44:03 (setting [11]) turned out to be 1080 nM.

In the assay with HLA-A*02:01 [4] (source organism: Influenza A virus (A/Swine/Indiana/1726/1988(H1N1))), KLRGVAPL yielded a dissociation constant (Kd) of 2250 nM.

Consider ISQHQHLAI, for which the Kd in the assay with HLA-A*32:01 (setting [12]) was 107 nM.

With LTDFQSHQLW, the Kd was determined as 3680 nM with HLA-A*01:01 [5] (setting [13]) and 1580 nM with HLA-B*53:01 (setting [13]).

Regarding PYFGPAAEG, in the assay with HLA-A*24:02 [2] (setting [8]), the IC50 came to 13000 nM. That is a double-digit micromolar value.

On to MEDKTPVTTW, for which the figures for the Kd with HLA-B*44:02 (setting [9]) and in the assay with HLA-B*44:03 (setting [9]) were 115 nM and 180 nM, respectively.

TDFQSHQLW: in the assay with HLA-B*44:02 (setting [13]), the Kd amounted to 37 nM.

Turning to FEKQLGQVML, the dissociation constant (Kd) with HLA-B*40:01 (setting [10]) stood at 130 nM.

With ALATFTVNI, the Kd in the assay with HLA-A*32:01 (setting [12]) came to 6.07 nM.

Consider ILLFVIVIY, for which, in the assay with HLA-A*32:01 (setting [12]), the Kd came to 952 nM.

Regarding HSVGFDYVY, the equilibrium dissociation constant (Kd) with HLA-A*01:01 [5] (setting [14]) is 14900 nM; with HLA-A*29:02, 157 nM; with HLA-A*23:01, not below 77800 nM; with HLA-A*24:02 [6], not below 77600 nM; with HLA-A*26:01 (setting [14]), 586 nM; with HLA-A*30:02 it was 11.9 nM.

In the case of VQGPGGSTY, the Kd in the assay with HLA-A*11:01 (setting [15]) amounted to 8940 nM; in the assay with HLA-B*15:01 (setting [15]), 190 nM; with HLA-A*03:01, 14500 nM.

With ELSPRWYFYY, the Kd was 91.4 nM with HLA-A*01:01 [5] (setting [14]); 8.01 nM with HLA-A*29:02; 8810 nM in the assay with HLA-A*23:01; 9440 nM with HLA-A*24:02 [6]; 4.04 nM with HLA-A*26:01 (setting [14]); 60.1 nM with HLA-A*30:02.
